± gives the standard deviation.
Assay: protein stability index of a GFP-peptide fusion (GPS, HEK-293T) (PSI 1-6); higher = more stable
[1] = treatment: DMSO, c terminus: a fixed tail appended
[2] = treatment: MLN4924 1 uM, 8 h, c terminus: a fixed tail appended
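Further: 24-mer peptide tiles fused after GFP, lentivirally expressed, FACS-sorted into six equal bins by GFP/DsRed ratio, decoded by Illumina sequencing, PSI is the read-weighted mean bin number.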

Sequence | protein stability index [1] | protein stability index [2] | protein stability index (treatment: DMSO, c terminus: native) | protein stability index (treatment: MLN4924 1 uM, 8 h, c terminus: native)
NSQNEVNGWTCLHWACKRNHGQVV [ANKRD40] | 2.57 ± 0.24 | 2.65 ± 0.24 |  | 
GRLEGLIQPDDLINQLTFIMDANQ [FAF2] | 2.8 ± 0.2 | 2.77 ± 0.5 |  | 
LMSESEWRNLGVQQSQGWVHYMIH [CKS1B] | 2.42 ± 0.35 | 2.05 ± 0.31 |  | 
SRLLFFLLGFLRIRVRGQRASRLQ [LPCAT4] | 2.35 ± 0.09 | 2.58 ± 0.31 |  | 
ALDSADLPPPSALKKGSKEKQADF [NFE2L1] | 5.33 ± 0.2 | 5.39 ± 0.21 |  | 
MDVERQETPEWLDSDSCQKCDQPF [WDFY2] | 5.11 ± 0.25 | 5.08 ± 0.15 |  | 
HLVPEPDRLEEQLPWLSLRALKFR [DNAAF3] | 2.63 ± 0.1 | 2.78 ± 0.26 |  | 
ENQSPSSSNYFSPRESTDFSSSSQ [ZBTB22] | 5.12 ± 0.31 | 4.96 ± 0.34 |  | 
VKMALDIEIATYRKLLEGEESRIS [PRPH] | 2.61 ± 0.13 | 2.7 ± 0.39 |  | 
IEQQQIRNALENIRKEMKLLEQAG [CRYL1] | 3.84 ± 0.17 | 4.27 ± 0.62 |  | 
IVRLHDSISEEGFHYLVFDLVTGG [CAMK2B] | 2.85 ± 0.66 | 2.65 ± 0.52 |  | 
VELGKQKKKYMPYNHQHKYFFLIG [FADS1] | 2.29 ± 0.94 | 3.12 ± 0.48 |  | 
LTDDDVVDWDEEYPPQMGEEYSQI [BTBD10] | 5.15 ± 0.11 | 5.22 ± 0.19 |  | 
VTNPHSSQWKDPALSQLICFCRES [GADD45A] | 2.5 ± 0.24 | 2.67 ± 0.33 |  | 
ISLDVLQPSFPEILLESHMVMIRG [POMT2] | 2.34 ± 0.39 | 2.41 ± 0.71 |  | 
RGYPPPRDSYSSSSRGAPRGGGRG [RBMX] | 5.12 ± 0.36 | 5.3 ± 0.23 |  | 
LEKSNKNFSKKIQQIHVVSQFKIL [VPS39] | 2.17 ± 0.24 | 2.07 ± 0.26 |  | 
LQGTESLNRATQSIERSHRIATET [VTI1B] | 4.65 ± 0.18 | 4.76 ± 0.14 |  | 
IFATKPHVLPAVLAEVAPVVTTEH [PYCR3] | 3.33 ± 0.38 | 3.4 ± 0.21 |  | 
VWVLMDEDVRIFFYQSPYDSEQVP [NCF4] | 2.3 ± 0.71 | 2.33 ± 0.64 |  | 
LRALGELLRRDLGVGTSMEGASPL [FANCE] | 2.92 ± 0.32 | 2.91 ± 0.43 |  | 
FPESETKECPFRVNKVCGAACSSK [SERPINB5] | 2.8 ± 0.56 | 3.55 ± 0.66 |  | 
SGASPKESTNPEKAHETLHQSLSL [CDC25A] | 4.95 ± 0.12 | 4.83 ± 0.11 |  | 

Sequence | protein stability index [1] | protein stability index [2] | protein stability index (treatment: DMSO, c terminus: native) | protein stability index (treatment: MLN4924 1 uM, 8 h, c terminus: native)
TIKLWKITERDKRPEGYNLKDEEG [PPP2R2C] | 4.05 ± 0.25 | 4.03 ± 0.17 |  | 
KSRLVQLPPVAVRSLQDLARIAIR [PCMTD2] | 3.52 ± 0.19 | 3.7 ± 0.073 |  | 
ARLQDFQELELVLMISENNFLFRN [ANKRD40] | 2.97 ± 0.63 | 2.66 ± 0.58 |  | 
VVKLLVSHGANVNHTTVTNSTPLR [FEM1B] | 2.25 ± 0.26 | 2.29 ± 0.27 |  | 
HGDSQQTHLLKQGRSSMGTGLSGG [CRY1] | 4.36 ± 0.16 | 4.43 ± 0.14 |  | 
PLVTPPQSPVSPQPPAITQVHRQG [SMTNL2] | 4.56 ± 0.35 | 4.58 ± 0.053 |  | 
TATMKDLEAEVKDTTRVENLIKSE [R3HDM1] | 5.36 ± 0.17 | 5.46 ± 0.23 |  | 
SLSAALLTAALLTFDTGCLTLSQY [POMT2] | 3.29 ± 0.32 | 3.11 ± 0.43 |  | 
TQATETTTTRHKRTANPSKTIDLG [CLINT1] | 4.88 ± 0.09 | 5.05 ± 0.13 |  | 
KETDPLTFNFISSLKAICTEIANC [PLD5] | 2 ± 0.27 | 2.05 ± 0.1 |  | 
TTPLQLAIIRERSSCVKILLDHNA [ASB7] | 2.26 ± 0.16 | 2.34 ± 0.22 |  | 
ETQLKTLAQFPNTLLGNPKKRMRY [KCNA1] | 3.25 ± 0.46 | 3.61 ± 0.46 |  | 
CDLFDREIVVTISWAKSIPGFSSL [ESRRA] | 3.28 ± 0.16 | 2.97 ± 0.4 |  | 
GSQRARVVNTDHGSPEQLQIPVTD [SDE2] | 5.06 ± 0.22 | 4.98 ± 0.34 |  | 
PNFNFNISHQGDYAVLAAEPELQV [AASDHPPT] | 4 ± 0.09 | 3.93 ± 0.39 |  | 
LERVRVSCTIIFLASIFQLAMWTT [TMEM175] | 3.24 ± 0.4 | 3.29 ± 0.23 |  | 
LPGPTRPVLGRRAVGGRLRLVPGG [HAGHL] | 3.53 ± 0.41 | 3.67 ± 0.23 |  | 
CEGRRTRFRSCNTEDCPTGSALTF [ADAMTS4] | 3.42 ± 0.18 | 3.29 ± 0.092 |  | 
TIKKRLENNYYWSASECMQDFNTM [BRD3] | 2.08 ± 0.47 | 2.15 ± 0.43 |  | 
DYELLQMLQIVVGVRDSGSPPLHA [PCDHGC5] | 2.3 ± 0.41 | 2.18 ± 0.17 |  | 
DIKICALGEEWSLHKIYLCQSGYF [GMCL1] | 2.91 ± 0.62 | 2.62 ± 0.49 |  | 
EFNHTGELLATGDKGGRVVIFQRE [PPP2R2B] | 3.18 ± 0.24 | 3.19 ± 0.22 |  | 
FRNAASTLTERPCYNRRASKLTY [ANKRD40] |  |  | 3.26 ± 0.21 | 3.16 ± 0.39

Sequence | protein stability index [1] | protein stability index [2] | protein stability index (treatment: DMSO, c terminus: native) | protein stability index (treatment: MLN4924 1 uM, 8 h, c terminus: native)
RIIYMLLITIATFQIAANLSMERY [SLC19A2] | 3.32 ± 0.31 | 2.91 ± 0.12 |  | 
APGFGEDVPNRLVDNIDMIDGDGD [BEX5] | 5.5 ± 0.23 | 5.59 ± 0.19 |  | 
TIKSLSAELLKANEIIKKLQGDLK [SASS6] | 2.16 ± 0.48 | 2.37 ± 0.36 |  | 
ELRNMCDEHIASEEPAEKEDLLQQ [CLCN6] | 5.38 ± 0.18 | 5.45 ± 0.12 |  | 
GTVPGQAPRLAVAVPAVTSADSQF [LYSMD4] | 4.46 ± 0.28 | 4.55 ± 0.17 |  | 
SQENSINPIQKEEDEGVDLSEGSS [SPANXN3] | 5.5 ± 0.2 | 5.64 ± 0.084 |  | 
LGNVAEVKELRPQLMTSQFISVFS [ZER1] | 2.55 ± 0.3 | 2.34 ± 0.28 |  | 
KDPRDPEESKEPKEEKQRRRCKPK [GNAS] | 5.37 ± 0.26 | 5.26 ± 0.3 |  | 
LHLGLPWRMLRPQLVNSSADNMLE [PPEF2] | 2.87 ± 0.31 | 2.67 ± 0.48 |  | 
DSSNPYPNFNFNISHQGDYAVLAA [AASDHPPT] | 3.24 ± 0.36 | 3.42 ± 0.41 |  | 
TLQPPEFLYSHGVPRTLSPHQYHS [TBX5] | 2.83 ± 0.14 | 3.06 ± 0.12 |  | 
AAAYGHALEQYEGESWRESARYLE [P3H4] | 4.19 ± 0.23 | 4.21 ± 0.21 |  | 
YIIIVPLKKSRGKFIKPWESPDEM [PTPRD] | 2.5 ± 0.45 | 3.02 ± 1.5 |  | 
TAVAQGGWRSLWLGWGPTALRDVP [SLC25A39] | 2.45 ± 0.14 | 1.89 ± 0.17 |  | 
GLLQYGSTVKNEFSLKTFKRKSEV [MATN2] | 3.02 ± 0.25 | 3.07 ± 0.35 |  | 
IKIIKNKKAFLNQAQIELRLLELM [DYRK1B] | 2.75 ± 0.47 | 2.6 ± 0.43 |  | 
QILYESCPKYKFISCPTCRRETVL [RNF208] | 2.15 ± 0.32 | 2.23 ± 0.28 |  | 
YRVLLGHTLILMFIWFVCSLVYYG [SLC22A15] | 2.32 ± 0.53 | 2.33 ± 0.57 |  | 
MNEVEKTMEYSMVGRTVLDMLIRE [RSPH3] | 2.59 ± 0.56 | 2.16 ± 0.22 |  | 
QADLLAHLVPEPDRLEEQLPWLSL [DNAAF3] | 2.34 ± 0.25 | 2.48 ± 0.28 |  | 
KLFDVPSLNGVYPRMNEVYTRLGE [CEP70] | 2.65 ± 0.17 | 2.53 ± 0.34 |  | 
LPIQTPGAFLRTCLLSSNSRSLLT [TLE6] | 2.06 ± 0.34 | 2.1 ± 0.19 |  | 
IYRDSYPRNPTVRWGYVAMKFAQV [SOAT1] | 2.79 ± 0.47 | 2.67 ± 0.53 |  | 

Sequence | protein stability index [1] | protein stability index [2] | protein stability index (treatment: DMSO, c terminus: native) | protein stability index (treatment: MLN4924 1 uM, 8 h, c terminus: native)
AARGKERCVRVFLEHGADPTVKDL [ASB7] | 3.73 ± 0.17 | 3.76 ± 0.38 |  | 
SDVHPVALNFMKGCLKMNPDDRLT [CDKL4] | 3.55 ± 0.27 | 3.49 ± 0.18 |  | 
WKYILLGLADVEANYVIVRAYQYT [SLC35F2] | 2.77 ± 0.66 | 2.86 ± 0.26 |  | 
RTTVHDKSAHQTHSSWTPPNAQYW [DNAJC4] | 2.99 ± 0.32 | 3.02 ± 0.33 |  | 
RSEPIRPIDPAAWVSHTAAMTGTF [DVL3] | 2.99 ± 0.09 | 3.04 ± 0.23 |  | 
GFSPIIGRFCGQQNPPVIKSSGRF [NETO1] | 2.42 ± 0.29 | 2.52 ± 0.75 |  | 
QGLIGSVEEQLAQLRCEMEQQNQE [KRT17] | 5.3 ± 0.36 | 5.29 ± 0.34 |  | 
KGAPASWWNHMHFQHHAKPNCFRK [FADS1] | 2.87 ± 0.18 | 3.01 ± 0.43 |  | 
GDWIGLYRHFLKSPNFDGWFKTRR [DENND6A] | 2.82 ± 0.038 | 2.49 ± 0.49 |  | 
MRLSKTLVDMDMADYSAALDPAYT [HNF4A] | 2.86 ± 0.28 | 3.08 ± 0.25 |  | 
TVEKPGGKKVAVVLMDTQGAFDSQ [ATL3] | 4.18 ± 0.13 | 4.16 ± 0.22 |  | 
TVMEKCSDGWWRGSYNGQIGWFPS [NCK2] | 2.45 ± 0.51 | 2.26 ± 0.37 |  | 
ALHHVHTHLILHRDLKTQNILLDK [NEK8] | 2.25 ± 0.19 | 2.29 ± 0.25 |  | 
TDRRVLLMFLDICSELNKLCQHFE [SPACA9] | 2.44 ± 0.56 | 2.38 ± 0.42 |  | 
FIQKRCNSLLEEETILHFFVQILL [NEK8] | 2.41 ± 0.36 | 2.28 ± 0.47 |  | 
FMYFLRGSLPWQGLKADTLKERYQ [CSNK1G1] | 2.43 ± 0.35 | 2.26 ± 0.17 |  | 
WKNTKKMGVGKASASDGSSFVVAR [GLIPR2] | 3.64 ± 0.27 | 3.71 ± 0.3 |  | 
MAGNFWQSSHYLQWILDKQDLLKE [CCNC] | 2.34 ± 0.32 | 2.57 ± 0.38 |  | 
KNGLPSPERSYVFNGDFVDRGKDS [PPEF2] | 4.7 ± 0.079 | 4.76 ± 0.18 |  | 
EVQAVHKNTTYDLIANIVHDGKPS [USP39] | 3.69 ± 0.17 | 3.87 ± 0.32 |  | 

From the supplement of paper PMC10567573
